Laboratory results as given in article PMC11551740.

Target: M.EcoGII (methyltransferase EcoGII) (Escherichia coli)
Experiment: SEC; 50-100 ug protein on Superdex 200 Increase 10/300 GL, 0.75 ml/min, 20 mM HEPES (pH 7.0 in the methods, pH 7.4 in the legend), 250 mM NaCl; molecular weight estimated from a calibration curve of LMW markers

## M.EcoGII (methyltransferase EcoGII) (enzyme)
  stoichiometry N: 2
